We go through 2 molecules from article PMC8685725 (Proceedings of the National Academy of Sciences of the …, 2021).

In test [1] the target is T1, GFP-linked full-length hnRNPH1 (amino acids 2 through 449) (human (cDNA library from HEK-293T cells), UniProt P31943 2-449).
T1 sequence: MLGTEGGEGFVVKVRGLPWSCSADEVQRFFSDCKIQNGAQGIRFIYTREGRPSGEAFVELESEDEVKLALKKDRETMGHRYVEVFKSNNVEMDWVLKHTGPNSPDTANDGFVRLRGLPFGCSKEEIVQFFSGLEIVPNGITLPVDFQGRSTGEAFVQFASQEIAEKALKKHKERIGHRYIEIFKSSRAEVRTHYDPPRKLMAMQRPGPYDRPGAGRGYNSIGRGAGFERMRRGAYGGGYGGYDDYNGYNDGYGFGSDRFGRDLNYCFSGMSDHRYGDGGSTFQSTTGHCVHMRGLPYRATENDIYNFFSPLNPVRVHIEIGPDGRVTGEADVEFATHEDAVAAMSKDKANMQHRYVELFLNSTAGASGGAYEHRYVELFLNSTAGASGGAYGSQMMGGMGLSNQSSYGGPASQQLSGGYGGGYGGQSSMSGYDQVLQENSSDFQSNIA
The test is described as follows: hydrogel-binding assay.

The target of test [2] is T2, GFP:hnRNPH1-LC1, His tag cleaved, as liquid-like droplets (human (cDNA library from HEK-293T cells), UniProt P31943 192-280).
T2 sequence: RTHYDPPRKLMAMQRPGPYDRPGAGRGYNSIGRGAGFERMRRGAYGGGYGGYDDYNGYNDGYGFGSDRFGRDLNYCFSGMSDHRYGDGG
The test is described as follows: LLD incorporation assay.

B1: mCherry-linked C-terminal half of hnRNPH1 (amino acids 192 through 449), as hydrogel droplets or polymers (domain or fragment)
chain: RTHYDPPRKLMAMQRPGPYDRPGAGRGYNSIGRGAGFERMRRGAYGGGYGGYDDYNGYNDGYGFGSDRFGRDLNYCFSGMSDHRYGDGGSTFQSTTGHCVHMRGLPYRATENDIYNFFSPLNPVRVHIEIGPDGRVTGEADVEFATHEDAVAAMSKDKANMQHRYVELFLNSTAGASGGAYEHRYVELFLNSTAGASGGAYGSQMMGGMGLSNQSSYGGPASQQLSGGYGGGYGGQSSMSGYDQVLQENSSDFQSNIA
As to B1, in test [1], the binding result is “binds”.

B2: mCherry-linked LC1 domain of hnRNPH1 (amino acids 192 through 280), His tag cleaved (domain or fragment)
chain: RTHYDPPRKLMAMQRPGPYDRPGAGRGYNSIGRGAGFERMRRGAYGGGYGGYDDYNGYNDGYGFGSDRFGRDLNYCFSGMSDHRYGDGG
Regarding B2, the binding result in test [2] is “binds”.
